From publication PMC6170785, “Synthetic Fragments of Receptor for Advanced Glycation End Products Bind Beta-Amyloid 1–40 and Protect Primary Brain Cells From Beta-Amyloid Toxicity” (Frontiers in Neuroscience, 2018)

Columns and labels:
[1] = target: T1, Aβ 1–40 (Homo sapiens, UniProt P05067); assay: Fluorescent titration of RAGE fragments by Aβ 1–40; format: binding; settings: tryptophan fluorescence titration with Aβ 1–40; 25 mM Tris-HCl, 100 mM NaCl, 5 mM EDTA, pH 7.5; peptide 0.5 μM (P1) or 2 μM (P2–P6); excitation 285 nm, emission 355 nm; mean ± SEM of three independent measurements
T1 construct: Lyophilized synthetic Aβ 1–40 was dissolved in mili-Q water; host or cells: chemical synthesis (synthetic peptide)
Protocol: The fluorescence titrations of synthetic peptides were performed using Fluoromax 3 fluorescence spectrophotometer (Horiba Jobin Yvon, Germany). Titrations were conducted in a quartz cuvette with 2 ml of titration buffer (25 mM Tris-HCl, 100 mM NaCl, 5 mM EDTA, pH 7.5). The concentration of peptide (60–76) which has two tryptophan residues was 0.5 μM. Whereas peptides (60–70), (60–62), (60–65), (62–73), and (65–76) have only one Trp residue, their concentration was 2 μM to enhance the signal. Lyophilized synthetic Aβ 1–40 was dissolved in mili-Q water at a concentration of 1 mM. […]
The fluorescence spectrum was measured after each addition of beta-amyloid. […] Emission was detected in the range of […]. The maximum of fluorescence intensity was found at 355 nm. […]
where [S] – concentration of Aβ 1–40 in cuvette; ΔF is the difference of intensity between experiment in absence of Aβ 1–40 and experiment with beta-amyloid at the certain concentration and ΔFmax is the maximal fluorescence change ([Huang et al., 2016]). […]
The dissociation constant Kd was found by multiplication of the calculated slope factor and ΔFmax. For each peptide the dissociation constant was measured three times independently. Dissociation constants were expressed as mean ± SEM. P-values were measured by Mann-Whitney test to estimate the differences between each of obtained dissociation constants.

[2] = test system: primary cultures of neurons and astrocytes derived from hippocampal and cortical areas of rats' brains; assay: Caspase 3 activity assay (NucView 488) after Aβ 1–42 treatment; format: cell-based, rat; settings: pre-incubation 3 h with 10 μM peptide, then 1 h with 5 μM Aβ 1–42, NucView 488, confocal, mean (SEM) of N = 6–28 fields
Protocol: Mixed cultures of hippocampal and cortical neurons and glial cells were prepared as described previously ([Vaarmann et al., 2010]) with modifications, from Sprague-Dawley rat pups 2–4 days post-partum (UCL breeding colony). […] Hippocampi and cortex were removed into ice-cold PBS (Ca^2+, Mg^2+-free, Invitrogen, Paisley, United Kingdom). The tissue was minced and trypsinised (0.25% for 15 min at 37°C), triturated and plated on Poly-D-lysine-coated coverslips and cultured in Neurobasal A medium (Invitrogen, Paisley, United Kingdom) supplemented with B-27 (Invitrogen, Paisley, United Kingdom) and 2 mM L-glutamine. […]
For the measurement of caspase 3 activation, cells were loaded for 15 min at room temperature with 10 μM NucView 488 caspase 3 substrate (Biotium, United States) in HBSS. […] The 488 nm argon laser was used to excite NucView 488 fluorescence, which was measured using a bandpass filter from 510 and 560 nm. […] The number of cells with activated caspase 3 and the number of all visible cells was quantified manually in each field and the percentage of dead cells was calculated by dividing the number of caspase 3-positive cells by the number of all cells counted in one field. The differences between the groups were evaluated using the two-sample t-test. All data were expressed as mean ± SEM. […]

[3] = target: Beta-amyloid 1-40 Abeta 1-40 (Homo sapiens, UniProt P05067); assay: tryptophan fluorescence titration
Chain of Beta-amyloid 1-40 Abeta 1-40 (P05067 1-40): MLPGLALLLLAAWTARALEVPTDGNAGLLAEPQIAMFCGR

T1 sequence (P05067 672-711 limits assumed): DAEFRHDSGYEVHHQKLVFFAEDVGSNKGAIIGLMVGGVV

| Molecule | Kd [3] [nM] | further results |
| --- | --- | --- |
| SPQGGGPWDSVA [Peptide P5, synthetic fragment (65–76) of human RAGE] | – | Kd [1]: No binding; Percentage of cells with activated caspase 3, Mean [2]: 14.25%; Percentage of cells with activated caspase 3, Mean ([2]; SEM): 14.25 ± 3.22% |
| KVLSPQGGGPWD [RAGE fragment P6 (62-73)] | 1530 | – |
| AWKVLS [RAGE fragment P4 (60-65)] | 2810 | – |
| AWK [RAGE fragment P3 (60-62)] | 840 | – |
| AWKVLSPQGGG [RAGE fragment P2 (60-70)] | 4060 | – |
| AWKVLSPQGGGPWDSVA [RAGE fragment P1 (60-76)] | 1390 | – |
